Measurements as given in patent publication US20140302123A1.

T1: PTPN4-PDZ (residues G499-N604) (human), P29074
T1 chain: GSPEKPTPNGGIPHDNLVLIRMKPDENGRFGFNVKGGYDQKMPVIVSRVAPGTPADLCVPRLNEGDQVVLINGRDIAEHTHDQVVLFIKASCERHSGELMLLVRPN

B1: GluN2A-16 (peptide)
peptide: SNRRVYKKMPSIESDV
modifications: not checked
B2: GluD2-13 (peptide)
peptide: LNLGNDPDRGTSI
modifications: not checked
B3: EIRL-13 (peptide)
peptide: SWESYRSGGEIRL
modifications: not checked

Assays:
[1] = biological target: T1, PTPN4-PDZ (residues G499-N604) (human), …; assay: NMR titration
[2] = biological target: T1, PTPN4-PDZ (residues G499-N604) (human), …; assay: NMR titration, 15N-labeled PTPN4-PDZ with unlabeled peptide

Binder	fold increase in affinity against Cyto13-att [1] [fold]	Kd [2] [µM]
B1	4	42
B2		128
B3		1170
